Source: patent US20160090402A1

How the values were obtained:
hASCT1 receptor (human) = hASCT1 receptor (human) (UniProt P43007); experiment: soluble Env injected into SCID mice grafted with XChASCT1 cells; cells recovered, anti-RGS-His immunofluorescence
[1] = target: hASCT2 receptor (human type 2 sodium-dependent neutral amino acid transporter) (human) (UniProt Q15758); experiment: soluble Env injected into SCID mice grafted with XChASCT2 cells; cells recovered, anti-RGS-His immunofluorescence
Chain of hASCT2 receptor (human type 2 sodium-dependent neutral amino acid transporter) (human) (Q15758 whole entry): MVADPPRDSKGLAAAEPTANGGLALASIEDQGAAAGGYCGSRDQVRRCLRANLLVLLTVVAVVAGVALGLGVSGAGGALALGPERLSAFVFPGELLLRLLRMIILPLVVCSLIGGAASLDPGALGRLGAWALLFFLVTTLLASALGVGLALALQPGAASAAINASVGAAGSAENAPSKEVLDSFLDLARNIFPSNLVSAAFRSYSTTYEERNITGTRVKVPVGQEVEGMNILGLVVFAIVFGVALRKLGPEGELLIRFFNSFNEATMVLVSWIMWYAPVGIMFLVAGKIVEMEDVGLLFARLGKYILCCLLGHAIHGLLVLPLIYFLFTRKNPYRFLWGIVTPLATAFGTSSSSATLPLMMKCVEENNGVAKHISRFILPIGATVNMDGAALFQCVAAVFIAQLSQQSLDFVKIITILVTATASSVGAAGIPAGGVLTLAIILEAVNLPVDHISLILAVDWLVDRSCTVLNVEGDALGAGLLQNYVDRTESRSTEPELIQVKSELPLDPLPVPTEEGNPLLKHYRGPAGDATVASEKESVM

Chain of hASCT1 receptor (human) (P43007 whole entry): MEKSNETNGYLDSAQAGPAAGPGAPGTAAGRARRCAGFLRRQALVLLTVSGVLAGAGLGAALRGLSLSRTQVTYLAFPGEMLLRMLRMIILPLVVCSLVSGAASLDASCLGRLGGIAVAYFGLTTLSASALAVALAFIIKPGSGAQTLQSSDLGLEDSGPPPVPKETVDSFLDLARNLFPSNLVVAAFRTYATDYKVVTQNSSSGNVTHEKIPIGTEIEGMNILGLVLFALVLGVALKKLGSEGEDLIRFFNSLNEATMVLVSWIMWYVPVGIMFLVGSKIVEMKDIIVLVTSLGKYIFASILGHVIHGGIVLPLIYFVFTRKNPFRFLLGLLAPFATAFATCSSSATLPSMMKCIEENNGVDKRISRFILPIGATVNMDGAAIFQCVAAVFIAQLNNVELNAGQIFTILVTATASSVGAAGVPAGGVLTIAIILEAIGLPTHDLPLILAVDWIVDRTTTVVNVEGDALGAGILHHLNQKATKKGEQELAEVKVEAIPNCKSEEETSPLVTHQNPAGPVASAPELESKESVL

Question: For “soluble protein of plasmid 460 (envelope-spacer-His6) (from UniProt Q9UQF0 21-435) (ligand)”, which NF/NT, Mean (fluorescent cells of 77 cells) (hASCT1 receptor (human)) is on record?
Answer: 24

Question: And the NF/NT, Mean (fluorescent cells of 57 cells) [1]?
Answer: 23
